This is an account of results in paper PMC5118228 (EJNMMI Research, 2016).

Read-outs that look alike come from different tables or passages of the source. Where only a bound is given, the exact number is not on record here.

This series relates to nontumor-bearing mice. The format is in vivo. To be noted: for median survival / MTD: nontumor-bearing mice; for survival rate at 90 days post-treatment: n=8; for MTD: 90 days, n=8/cohort. How it is done: MTD was defined as the highest dose given to the animals allowing 100% survival with no significant weight loss >15% throughout the experiment. Nontumor-bearing mice were randomly divided into seven cohorts used to evaluate MTD, six treatments and one control (n = 8/cohort); see Table 1. […] Control mice received DOTATATE (4 × 0.3 nmol) on four consecutive days. The animals were followed for 90 days. Serum was analyzed for the biomarker neutrophil gelatinase-associated lipocalin (NGAL) using ELISA (R&D Systems, 450 nm).

For the molecule `C[C@@H](O)[C@H](NC(=O)[C@@H]1CSSC[C@H](NC(=O)[C@@H](Cc2ccccc2)NC(=O)CN2CCN(CC(=O)O)CCN(CC(=O)O)CCN(CC(=O)O)CC2)C(=O)N[C@@H](Cc2ccc(O)cc2)C(=O)N[C@H](Cc2c[nH]c3ccccc23)C(=O)N[C@@H](CCCCN)C(=O)N[C@@H]([C@@H](C)O)C(=O)N1)C(=O)O` [^213Bi-DOTATATE, metal not drawn], the median survival was above 90 days (all treated cohorts except the high-dose without L-lysine) and 24 days (high-dose without L-lysine, 28.7 ± 1.2 MBq). Moreover, the “survival rate at 90 days post-treatment” value reads like this: (high-dose(+), 28.3 ± 0.8 MBq, with L-lysine) 75%; (high-dose(−), 28.7 ± 1.2 MBq, without L-lysine) 0%; (low-dose(+), 13.2 ± 0.9 MBq, with L-lysine) 100%; (low-dose(−), 13.0 ± 1.6 MBq, without L-lysine) 87.5%; (medium-dose(+), 21.7 ± 1.9 MBq, with L-lysine) 100%; (medium-dose(−), 20.7 ± 0.8 MBq, without L-lysine) 62.5%. Also, the MTD runs as follows: (in absence of L-lysine) below 13.0 ± 1.6 MBq; (with L-lysine renal protection (35 mg i.p.)) 21.7 ± 1.9 MBq.
